The target in assay [1] is T1, 4R2N-tau (Swiss-Prot P10636-8) (human, UniProt P10636 2-758).
T1 construct: The construct used in SPR is not described; also called 441 amino acid tau protein
Nature of the assay: surface plasmon resonance. (In SPR one partner is held on a chip, and binding of the other changes the refractive index at the surface.)

Assay [2] concerns the target T2, 3R2N-tau (Swiss-Prot P10636-5) (human, UniProt P10636 2-758).
T2 construct: The construct used in SPR is not described
Description: surface plasmon resonance.

Here are results for one molecule from patent publication US20240018226A1 (PROTHENA BIOSCIENCES, published 2024).

T2 sequence (P10636 other isoform, or with tags, fused parts or gaps limits assumed): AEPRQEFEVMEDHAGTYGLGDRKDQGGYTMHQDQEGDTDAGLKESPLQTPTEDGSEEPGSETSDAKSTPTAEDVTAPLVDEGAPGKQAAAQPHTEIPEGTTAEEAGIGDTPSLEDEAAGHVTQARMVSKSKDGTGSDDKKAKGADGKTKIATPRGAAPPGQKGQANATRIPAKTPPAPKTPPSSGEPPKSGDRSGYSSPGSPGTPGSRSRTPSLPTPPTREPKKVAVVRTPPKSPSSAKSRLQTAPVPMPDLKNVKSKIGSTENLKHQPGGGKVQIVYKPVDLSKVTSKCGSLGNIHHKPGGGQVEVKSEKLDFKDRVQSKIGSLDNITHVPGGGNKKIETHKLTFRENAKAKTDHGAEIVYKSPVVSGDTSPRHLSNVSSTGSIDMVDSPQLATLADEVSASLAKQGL
T1 sequence (P10636 other isoform, or with tags, fused parts or gaps limits assumed): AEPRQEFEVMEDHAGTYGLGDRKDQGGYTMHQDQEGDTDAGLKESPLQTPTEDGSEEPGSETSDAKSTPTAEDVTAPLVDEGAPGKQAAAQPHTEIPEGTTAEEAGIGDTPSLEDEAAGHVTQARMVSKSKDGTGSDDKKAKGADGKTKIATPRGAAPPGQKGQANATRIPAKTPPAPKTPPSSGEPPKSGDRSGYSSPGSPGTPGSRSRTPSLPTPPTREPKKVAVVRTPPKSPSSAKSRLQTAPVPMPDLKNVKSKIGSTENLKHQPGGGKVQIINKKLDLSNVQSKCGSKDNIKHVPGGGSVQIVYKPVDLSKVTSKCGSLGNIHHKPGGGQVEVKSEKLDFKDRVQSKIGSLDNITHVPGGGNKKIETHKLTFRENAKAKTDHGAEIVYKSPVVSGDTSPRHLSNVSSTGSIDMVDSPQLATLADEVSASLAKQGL

B1: hu3D6VHv1bA11/L2-DIM4 (antibody, human IgG1, kappa, V domains shown)
VH: EVQLVQSGAEVVKPGATVKISCKASGFNIKDYYLHWVRQRPGQGLEWIGWIDPENGDTVYDPKFQGRATITADTSTDTAYLQLGSLTSEDTAVYFCSTLDFWGQGTLVTVSS
VL: DVVMTQSPLSLPVTLGQPASISCKSSQSLLDSDGKTYLNWLQQRPGQSPRRLIYLVGKRDSGVPDRFSGSGSGTDFTLKISRVEAEDVGVYYCWQGTHFPYTFGGGTKLEIKR
notes: also called PRX005; humanized 3D6 variant
As to B1, the equilibrium dissociation constant (Kd) (commonly the constant that tells how readily two partners part at equilibrium) in assay [1] is 0.206 nM; in assay [2], 0.154 nM.
